For one substance, EC50 results are on record in PMC9278964.

The target in assay [1] is biotinylated PD-L1 (Homo sapiens (assumed)) (UniProt Q9NZQ7). The assay can be described thus: ELISA. A general note: ELISA stands for enzyme-linked immunosorbent assay.
Assay [2] shares this target. Kind of assay: ELISA. This is another data set of the same source.

Like-named read-outs stand apart in the source and are kept apart here.

The term EC50 denotes the concentration giving half of the maximal effect. Lower therefore signals higher potency in that assay.

Chain of UniProt Q9NZQ7 (Q9NZQ7 19-290): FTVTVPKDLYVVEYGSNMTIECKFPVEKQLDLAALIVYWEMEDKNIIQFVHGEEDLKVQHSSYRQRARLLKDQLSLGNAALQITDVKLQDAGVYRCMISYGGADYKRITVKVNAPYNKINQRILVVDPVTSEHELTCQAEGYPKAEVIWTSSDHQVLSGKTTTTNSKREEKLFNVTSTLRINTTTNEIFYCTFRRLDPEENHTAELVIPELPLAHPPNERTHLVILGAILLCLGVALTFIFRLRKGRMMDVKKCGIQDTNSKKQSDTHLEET

For avelumab (antibody), the figures for the EC50 in assay [1] and in assay [2] were 0.015 nM and 0.098 nM, respectively.
